Measured values from the supplement of paper PMC10567573.

B1: ADAMTS4 (parent)
chain: SFRKFRYGYNNVVTIPAGATHILV
B2: PRPH (parent)
chain: RTFGPPPSLSPGAFSYSSSSRFSS

Variants of: B1
Test: protein stability index of a GFP-peptide fusion (GPS, HEK-293T) (PSI 1-6); higher = more stable
Settings: c terminus: a fixed tail appended
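Also: lentivirally expressed fusions sorted by FACS into six bins by GFP to DsRed ratio, PSI derived from sequencing read proportions per bin multiplied by bin number.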

Protein stability index, by site and new letter:
L23: Y 2.41 | I 3.28 | H 2.91 | W 2.15 | R 1.84 | M 2.43 | P 2.29 | S 2.52 | V 2 | T 3.08 | Q 1.37 | K 2 | N 1.75
V24: P 1.64 | G 1.81 | S 1.68 | W 1.94 | L 2.35 | K 1.7 | Y 2.57 | I 2 | M 2.12 | T 1.44 | A 1.52 | E 2.34 | R 1.34 | H 1.73 | C 2.39 | F 3.25 | D 1.93 | Q 1.75 | N 1.66

Variants of: B2
Test: as above
Settings: c terminus: a fixed tail appended

Protein stability index: each site, then its substitutions
S10: H 3.13 | Y 2.36 | L 3.24 | M 3.61 | E 3.23 | V 2.78 | R 3.15 | D 2.76 | W 2.9 | G 3.46 | C 3.45 | F 2.67 | K 3.06 | Q 3.34 | N 3.15 | I 3.19
A13: K 3.42 | C 2.86 | N 3.94 | I 3.33 | D 3.5 | H 3.05 | E 3.51 | R 3.01 | T 3.45 | V 2.94 | Q 3.62 | W 2.79 | G 3.21 | P 3.21 | S 2.73 | F 2.98 | Y 3.14 | M 3.29 | L 3.18
S8: V 2.59 | I 2.78 | K 2.58 | C 3.04 | L 3.14 | D 3.04 | R 3.83 | N 3.5 | G 2.68 | W 2.75 | E 3.49 | M 2.93
Y16: G 4.28 | D 3.9 | W 3.36 | V 3.69 | S 3.86 | I 3.31 | K 3.66 | A 3.81 | R 3.92 | T 3.64 | L 3.95 | C 3.18 | F 2.99 | Q 3.62 | P 4.1 | E 3.98 | H 4.04
P5: W 2.21 | V 2.89 | F 2.61 | N 3.55 | Q 2.6 | Y 2.65 | C 2.64 | D 3.35 | S 2.99 | A 2.76 | I 2.5 | T 3.29 | M 2.6 | K 2.99 | R 2.71 | E 3.23 | L 2.07 | G 2.84 | H 2.81
P6: N 3.1 | K 3.25 | M 2.8 | D 2.86 | I 2.9 | F 2.15 | W 2.01 | Q 3.03 | T 2.71 | G 3.02 | E 2.83 | V 3.05 | Y 2.11 | L 2.95 | C 2.09 | S 3.37 | H 2.79 | A 2.76 | R 3.02
F3: G 3.13 | A 3.33 | D 4.09 | S 3.6 | I 3.46 | L 4.11 | T 3.54 | E 3.72 | V 3.31 | Y 3.16 | W 3.19 | M 3.75 | N 3.38 | C 2.82 | K 3.38 | R 3.41
L9: W 3.09 | H 3.54 | G 3.64 | E 3.44 | C 2.71 | V 3.31 | D 3.61 | S 3.8 | R 4.05 | T 3.7 | Y 2.94 | A 3.52 | N 3.42 | Q 3.76 | K 3.8 | F 3.39
G4: F 3.06 | R 3.1 | L 2.42 | H 3.2 | V 2.37 | S 3.21 | W 2.22 | K 2.26 | N 3.12 | C 2.9 | Q 3.26 | E 3.43 | D 3.36 | M 3.08 | I 2.55
S18: D 2.94 | I 2.66 | F 2.45 | G 3.38 | N 3.22 | A 2.76 | E 3.57 | H 2.8 | M 2.75 | K 3.9 | R 3.38 | L 2.59 | Q 3.5 | C 3.5 | P 2.93
P11: S 3.04 | L 2.59 | R 3.63 | K 2.44 | F 2.11 | G 2.88 | M 2.52 | W 2.23 | V 2.69 | A 3.11 | H 2.74 | D 3.45 | N 3.12 | E 4 | I 2.46 | T 2.94 | C 1.64 | Y 2.41 | Q 3.38
G12: T 3.31 | L 2.47 | V 3.36 | W 2.25 | K 3.21 | D 3.24 | I 3.05 | R 3.35 | E 3.27 | C 1.96 | M 2.89 | Y 2.93 | S 3.42 | N 3.14 | F 2.16
P7: R 2.93 | D 3.45 | L 2.71 | N 3.02 | T 3.56 | K 3.71 | F 2.34 | S 3.26 | Y 2.12 | V 2.86 | E 2.89 | I 2.53 | G 2.92 | W 2.08 | C 1.6 | Q 3.13 | M 2.77 | H 3.15 | A 3.22
S15: F 2.43 | G 3.64 | H 2.85 | C 2.33 | K 3.29 | M 2.65 | W 2.31 | R 2.33 | N 3.37 | L 2.62 | P 3.03 | E 3.22 | Y 2.56 | A 3.27 | D 3.49 | T 3.48 | V 2.74 | Q 3.18 | I 2.95
S17: L 2.53 | Q 3.1 | A 3.02 | C 2.85 | P 3.16 | N 3.71 | K 3.04 | T 3.19 | H 2.54 | F 2.37 | I 2.55 | D 3.06 | V 2.75 | W 2.27 | Y 3.07 | R 2.99 | E 3.59
T2: A 2.95 | G 2.89 | F 2.46 | V 2.23 | N 2.92 | D 3.21 | Y 2.31 | K 2.49 | M 2.52 | C 2.02 | H 3.17 | P 3.08 | I 2.97 | L 2.43 | S 3.73 | Q 2.92
R1: W 2.81 | Q 3.62 | Y 2.4 | V 1.97 | C 2.59 | H 3.24 | I 2.41 | D 3.29 | A 3.18 | M 2.29 | K 2.74 | E 3.09 | F 2.52 | N 3.7 | G 3.25 | S 3.01 | T 2.63
F14: E 4.21 | W 3.22 | I 3.17 | G 3.3 | V 3.52 | R 4.11 | Y 2.87 | K 4.23 | Q 4.01 | T 4.16 | M 3.28 | H 3.7 | C 3.09 | A 3.53 | N 4.03 | L 3.4
